Data on two substances can be found in paper PMC6684607.

The target of assay [1] is TNF domain of Spodoptera frugiperda Eiger (SfEiger), endogenous soluble form released from Sf9 cells (Spodoptera frugiperda (endogenous in Sf9)). In words: crystal structure; X-ray, 1.7 A, space group R 3:H, one protomer in the asymmetric unit, trimer generated by the crystallographic threefold axis; crystal grown at 298 K in MORPHEUS condition 1-26.
The target of assay [2] is Recombinantly expressed TNF domain of Spodoptera frugiperda Eiger (SfEiger) (Spodoptera frugiperda). The assay is described as follows: SEC; Superdex 200 Increase 10/300 GL; elution volume compared with a protein standard.

As to “TNF domain of Spodoptera frugiperda Eiger (SfEiger), endogenous soluble form released from Sf9 cells (domain or fragment)”, in assay [1], the stoichiometry N came to 3.
For “Recombinantly expressed TNF domain of Spodoptera frugiperda Eiger (SfEiger) (domain or fragment)”, the stoichiometry N in assay [2] turned out to be 3.
